Results: PMC3902906

Experiments:
Assay in all cases: ITC
Conditions in all cases: ITC: 10 mM HEPES, 150 mM NaCl, pH 7.5, 25 C, 100 uM DNA into 10 uM CsoR tetramer; EMSA: same buffer, room temperature, 30 min, 6% PAGE in TBE; SEC: same buffer
[1] = target: CsoRSl R129A (Streptomyces lividans 1326) (UniProt D6EK73)
[2] = target: CsoRSl R132A (Streptomyces lividans 1326) (UniProt D6EK73)
[3] = target: CsoRSl R54A (Streptomyces lividans 1326) (UniProt D6EK73)

Question: Which Kd [1] does the source give for “CGGACAAATACCCCTGGTGGGTATATATGG (double strand) [csoR-EXT]” here?
Answer: 134 nM

Question: What about the Kd [2] of the same sequence?
Answer: 309 nM

Question: And the Kd [3]?
Answer: 2060 nM
